Measured values reported in US20050070692A1 (published 2005).

How the values were obtained:
human IL-1β [1] = target: T1, human IL-1β (human, UniProt P01584 117-269); assay: competition ELISA on coated human IL-1β against biotinylated Mu007, average of three experiments
T1 construct: mature; also called mature human IL-1β; Interleukin-1β
Method: (§1) Wells of 96-well ELISA plates (Nunc-lmmuno plate, Cat # 439454, NalgeNunc) were coated with 100 μL of 0.5. μg/mL of human IL-1β in 0.2M sodium carbonate-bicarbonate buffer (pH 9.4) overnight at 4° C., washed with Wash Buffer, blocked with Superblock blocking buffer for 30 min at 37° C., and washed again with Wash Buffer. A mixture of biotinylated Mu007 (0.16 μg/mL final concentration) and competitor antibody (Mu007, Hu007, or Hu007 analogs starting at 100 μg/mL final concentration and serial 3-fold dilutions) in ELISA Buffer were added in triplicate in a final volume of 100 μL per well. As a no-competitor control, 100 μL of 0.16 μg/mL biotinylated Mu007 was used. As a background control, 100 gLL of ELISA Buffer was used. ELISA plates were incubated at 37° C. for 2 hr. After washing the wells with Washing Buffer, 100 μL of 1 μg/mL HRP-conjugated streptavidin (Jackson ImmunoResearch) was added to each well. ELISA plates were incubated at room temperature for 30 min and washed with Washing Buffer. For color development, 100 μL/well of ABTS substrate was added. Color development was stopped by adding 100 μL/well of 2% oxalic acid. Absorbance was read at 415 nm.
(§2) Mu007, Hu007 and Hu007 analogs competed with biotinylated Mu007 in a concentration-dependent manner. […]

human IL-1α = target: T2, human IL-1α (human, UniProt P01583 113-271); assay: BIAcore, antibody captured on anti-IgG chip, ligand flowed
T2 sequence (looked up): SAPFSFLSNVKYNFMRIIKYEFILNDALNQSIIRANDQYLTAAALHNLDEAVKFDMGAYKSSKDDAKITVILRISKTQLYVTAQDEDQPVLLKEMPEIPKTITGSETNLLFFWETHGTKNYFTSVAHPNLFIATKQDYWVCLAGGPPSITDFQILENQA
Method: (§3) Affinities and specificities of both Hu007 and Mu007 were determined using BlAcore measurements. BIAcore™ is an automated biosensor system that measures molecular interactions. (Karlsson, et al. (1991) J. Immunol. Methods 145: 229-240). In these experiments antibody was immobilized at low density on a BIAcore™ chip. Ethyl-dimethylaminopropyl-carbodiimide (EDC) was used to couple reactive amino groups to purified goat anti-human IgG or goat anti-rabbit IgG to a flow cell of a carboxy-methyl (CM5) BIAcore™ sensor chip. Goat IgG was diluted in sodium acetate buffer, pH 4.0, and immobilized on a flow cell of a CM5 chip using EDC to yield 1000 response units. Unreacted sites were blocked with ehanolamine. A flow rate of 60 μL/min was used. Multiple binding/elution cycles were performed by injection a 100 μL solution of 15 μg/mL Mu007 or Hu007 followed by human IL-1β, mouse IL-1β, rat IL-1β, cynomolgus monkey IL-1β, porcine IL-1β, human IL-1 receptor antagonist, and human IL-1α at decreasing concentrations for each cycle (e.g., 1500, 750, 375, 188, 94, 47, 23.5, 12, and 0 picomolar). Elution was performed with glycine-HCl, pH 1.5. BIAevaluation™ was used to analyze the kinetic data. Table 2 depicts the affinities of Hu007 and Mu007 for human and cynomolgus IL-1β. […] Cynomolgus and porcine IL-1β had 100% binding to Hu007 relative to human IL-1β.

mouse IL-1β = target: T3, mouse IL-1β (mouse, UniProt P10749 118-269); assay: as above
T3 sequence (looked up): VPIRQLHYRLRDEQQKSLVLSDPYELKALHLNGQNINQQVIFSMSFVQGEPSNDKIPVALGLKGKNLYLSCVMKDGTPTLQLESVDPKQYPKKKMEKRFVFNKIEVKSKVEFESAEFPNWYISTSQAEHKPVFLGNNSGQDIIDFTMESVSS
Method: as §3

rat IL-1β = target: T4, rat IL-1β (rat, UniProt Q63264 117-268); assay: as above
T4 sequence (looked up): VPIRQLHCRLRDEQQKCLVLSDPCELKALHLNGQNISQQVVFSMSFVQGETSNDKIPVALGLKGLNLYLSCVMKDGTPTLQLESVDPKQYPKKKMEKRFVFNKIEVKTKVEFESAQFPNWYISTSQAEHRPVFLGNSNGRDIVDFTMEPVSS
Method: as §3

[2] = target: T5, human IL-1 receptor antagonist (human, UniProt P18510 26-177); assay: as above
T5 construct: also called IL-1ra
Method: as §3

human IL-1β [3] = target: T1, human IL-1β; assay: competition ELISA on coated human IL-1β against biotinylated Mu007, average
Method: as §1, §2

human IL-1β [4] = target: T1, human IL-1β; assay: competition ELISA on coated human IL-1β against biotinylated Mu007, Exp. A
Method: as §1
Mu007, Hu007 and Hu007 analogs competed with biotinylated Mu007 in a concentration-dependent manner. The IC₅₀ values of Mu007 and Hu007 in three independent ELISA competition experiments, obtained using the computer software Prism (GraphPad Software Inc., San Diego, Calif.) are shown in Table 1. The relative binding of Hu007 was on average 89% of Mu007.

human IL-1β [5] = target: T1, human IL-1β; assay: cell-based or functional assay
human IL-1β [6] = target: T1, human IL-1β; assay: BIAcore, antibody captured on protein A CM5 chip, human IL-1β flowed
Method: Affinities and specificities of several Hu007 analogs were determined using BIAcore measurements. BIAcore™ is an automated biosensor system that measures molecular interactions. (Karlsson, et al. (1991) J. Immunol. Methods 145: 229-240). In these experiments antibody was immobilized at low density on a BIAcore™ chip. Ethyl-dimethylaminopropyl-carbodiimide (EDC) was used to couple reactive amino groups to protein A to a flow cell of a carboxy-methyl (CM5) BIAcore™ sensor chip. Protein A was diluted in sodium acetate buffer, pH 4.5, and immobilized on a flow cell of a CM5 chip using EDC to yield approximately 1000 response units. Unreacted sites were blocked with ethanolamine. A flow rate of 60 μl/min was used. Multiple binding/elution cycles were performed by injection of 10 μl of a 5 μg/mL Hu007 solution, and heavy chain CDR2 analogs N55D, N55S, N55Q, G56A, and G56V, followed by human IL-1β at decreasing concentrations for each cycle (e.g. 1500, 750, 375, 188, and […]). Elution was performed with glycine-HCl, pH 1.5. BIAevaluation™ was used to analyze the kinetic data. Table 5 depicts the affinities of Hu007 and the various Hu007 analogs for human IL-1β.

T5 sequence (P18510 26-177 limits assumed): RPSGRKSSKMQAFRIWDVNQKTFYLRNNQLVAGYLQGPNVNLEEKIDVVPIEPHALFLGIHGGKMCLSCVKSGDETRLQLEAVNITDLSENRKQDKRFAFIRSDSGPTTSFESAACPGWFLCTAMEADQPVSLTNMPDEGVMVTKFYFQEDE

B1: humanized antibody Hu007 (antibody, human IgG1, kappa, V domains shown)
VH: QVQLVQSGAEVKKPGASVKVSCKVSGYTFSRYWIEWVRQAPGKGLEWIGEILPGNGNINYNEKFKGKATITADTSTDTAYMELSSLRSEDTAVYYCSTIYYDYDQGFTYWGQGTLVTVSS
VL: DIQMTQSPSSLSASVGDRVTITCKASQDIDRYLSWFQQKPGKAPKSLIYRVKRLVDGVPSRFSGSASGTDYTLTISSLQPEDFATYYCLQYDEFPYTFGQGTKLEIKR
notes: Human IgG1 kappa; also called WT; Hu007 WT
Human IL-1β [1]
  IC50: 0.35 µg/mL
Human IL-1α
  binding result: no binding
Mouse IL-1β
  binding result: no binding
Rat IL-1β
  binding result: no binding
[2]
  binding result: no binding
Human IL-1β [3]
  Hu007/Mu007 × 100 (IC50 ratio, relative binding against Mu007): 89%
Human IL-1β [4]
  Hu007/Mu007 × 100 (IC50 ratio, relative binding against Mu007): 98%
  IC50: 0.39 µg/mL
Human IL-1β [5]
  IC50, inhibition of human IL-1β stimulated proliferation: 57 Picomolar
Human IL-1β [6]
  Kd: 0.0105 nM
